B1: yeast-displayed wild-type human IL-11 [human] / soluble human IL-11 receptor extracellular domain, his-tagged [human] (parent complex)
chain 1: PGPPPGPPRVSPDPRAELDSTVLLTRSLLADTRQLAAQLRDKFPADGDHNLDSLPTLAMSAGALGALQLPGVLTRLRADLLSYLRHVQWLRRAGGSSLKTLEPELGTLQARLDRLLRRLQLLMSRLALPQPPPDPPAPPLAPPSSAWGGIRAAHAILGGLHLTLDWAVRGLLLLKTRL
chain 2: SPCPQAWGPPGVQYGQPGRSVKLCCPGVTAGDPVSWFRDGEPKLLQGPDSGLGHELVLAQADSTDEGTYICQTLDGALGGTVTLQLGYPPARPVVSCQAADYENFSCTWSPSQISGLPTRYLTSYRKKTVLGADSQRRSPSTGPWPCPQDPLGAARCVVHGAEFWSQYRINVTEVNPLGASTRLLDVSLQSILRPDPPQGLRVESVPGYPRRLRASWTYPASWPCQPHFLLKFRLQYRPAQHPAWSTVEPAGLEEVITDAVAGLPHAVRVSARDFLDAGTWSTWSPEAWGTPSTGTIPKEIPAWGQLHTQPEVEPQVDSPAPPRPSLQPHPRLLDHRDSVEQVAVLA

Variants of: B1
Assay: yeast display titration (flow cytometry); parent: 8.2 nM

**Q.** chain 1 PGPPPGPPRVSPDPRAELDSIVLLTRSLLADTRQLAAQLRDKFPADGDHNLDSLPTPAMSARALGALQLPGVLTRLRADLLSYLRHVQWLRRAGGSSLKTLEPELGTLQARLDRLLRRLQLLMSRLALPQPPPDPPAPPLAPPSSAWGGIRAAHAILGGLHLTLDWAVRGLLLLKTRL was tested. Which Kd did it give?
**A.** 0.22 nM

**Q.** How did the Kd turn out when chain 1 PGPPPGPPRVSPDPRAELDSTVLLTRSLLADTRQLAAQLRDKFPADGDHNLDSLPTPAMSARALGALQLPGVLTRLRADLLSYLRHVQWLRRAGGSSLKTLEPELGTLQARLDRLLRRLQLLMSRLALPQPPPDPPAPPLAPPSSAWGGIRAAHAILGGLHLTLDWAVRGLLLLKTRL was run?
**A.** 0.42 nM

**Q.** Which Kd does the source give for chain 1 PGPPPGPPRVSPDPRAELGSIVLLTRSLLADTRQLAAQLRDKFPADGDHNLDSLPTPAMSARALGALQLPDVLTRLRADLLSYLRHVQWLRRAGGSSLKTLEPELGTLQARLDRLLRRLQLLMSRLALPQPPPDPPAPPLAPPSSAWGGIRAAHAILGGLHLTLDWAVRGLLLLKTRL here?
**A.** 0.19 nM

Reference: publication PMC10658506 (2023)
